Data on 15 molecules can be found in patent US20230220080A1 (EPIMAB BIOTHERAPEUTICS, published 2023).

Test [1] concerns the target IGF1R (UniProt P08069 31-932, limits assumed). Kind of test: method not stated.
In test [2] the target is T1, hPD1-Fc (human, UniProt Q15116 25-167).
T1 construct: not shown: Fc part not described
Description: SPR. A general note: In SPR one partner is held on a chip, and binding of the other changes the refractive index at the surface.

For test [3], the target named is T2, human PD-L1, recombinant protein (human, UniProt Q9NZQ7 19-239, limits assumed).
T2 construct: also called rhPD-L1; PD-L1-his
Description: method not stated.

The target in test [4] is T2, human PD-L1, recombinant protein. Description: SPR Biacore X100, antigen immobilised on CM5, Ig injected.
Test [5] shares this target. Kind of test: SPR.
Test [6] deals with T3, human EGFR, recombinant protein (human, UniProt P00533 25-645).
T3 construct: also called hEGFR
Description: protein based binding; method not stated.

Test [7] has as its target Cyno EGFR (cynomolgus, UniProt A0A2K5WK39 25-645). Description: protein based binding; method not stated.
Test [8] deals with membrane EGFR on cells (human, UniProt P00533 25-1210). Description: cell-based or functional assay.
Test [9] addresses T4, c-Met, recombinant protein (human, UniProt P08581 25-932, limits assumed).
T4 construct: also called human cMet; cMet-his
Kind of test: SPR.

In test [10] the target is T2, human PD-L1, recombinant protein. Description: method not stated. The source holds these as a separate data set.
In test [11] the target is T3, human EGFR, recombinant protein. Description: method not stated.
The target in test [12] is VEGF (UniProt P15692-4 27-191, limits assumed). Description: method not stated.
The target in test [13] is T5, CD3 on the cell surface of Jurkat cells (human, UniProt P07766 23-207).
T5 construct: whole, on cells; CD3 is a complex of several chains; also called CD3 (Jurkat)
Kind of test: FACS on Jurkat cells, Alexa Fluor 488 anti-human IgG1, MFI.

The target in test [14] is T5, CD3 on the cell surface of Jurkat cells. Kind of test: FACS on Jurkat cells, 100 nM.
The target of test [15] is T6, CD22 on Raji and Daudi cells (human, UniProt P20273).
T6 construct: on the cell surface of the human B cell lines Raji and Daudi; the sheet names only the cell lines (Raji, Daudi); CD22 is the target that the text gives for Epratuzumab
Description: FACS on Raji cells, Alexa Fluor 488 anti-human IgG1, MFI; the curve reaches only about 130 MFI.

T2 sequence (Q9NZQ7 19-239 limits assumed): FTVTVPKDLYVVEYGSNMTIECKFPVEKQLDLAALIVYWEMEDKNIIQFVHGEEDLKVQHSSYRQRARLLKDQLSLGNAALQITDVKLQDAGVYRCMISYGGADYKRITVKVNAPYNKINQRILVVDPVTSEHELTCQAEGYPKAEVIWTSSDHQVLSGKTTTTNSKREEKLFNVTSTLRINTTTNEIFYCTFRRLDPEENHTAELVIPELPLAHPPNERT
T1 sequence (Q15116 25-167): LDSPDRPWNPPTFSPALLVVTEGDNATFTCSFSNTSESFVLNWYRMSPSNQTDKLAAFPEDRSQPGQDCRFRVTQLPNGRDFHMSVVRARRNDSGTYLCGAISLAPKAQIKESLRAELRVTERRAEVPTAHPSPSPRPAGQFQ
Chain of VEGF (P15692 other isoform, or with tags, fused parts or gaps limits assumed): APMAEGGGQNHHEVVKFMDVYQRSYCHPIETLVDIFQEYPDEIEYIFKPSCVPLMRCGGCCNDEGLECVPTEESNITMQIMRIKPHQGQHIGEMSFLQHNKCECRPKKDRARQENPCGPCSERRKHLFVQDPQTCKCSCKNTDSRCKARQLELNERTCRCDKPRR
T4 sequence (P08581 25-932 limits assumed): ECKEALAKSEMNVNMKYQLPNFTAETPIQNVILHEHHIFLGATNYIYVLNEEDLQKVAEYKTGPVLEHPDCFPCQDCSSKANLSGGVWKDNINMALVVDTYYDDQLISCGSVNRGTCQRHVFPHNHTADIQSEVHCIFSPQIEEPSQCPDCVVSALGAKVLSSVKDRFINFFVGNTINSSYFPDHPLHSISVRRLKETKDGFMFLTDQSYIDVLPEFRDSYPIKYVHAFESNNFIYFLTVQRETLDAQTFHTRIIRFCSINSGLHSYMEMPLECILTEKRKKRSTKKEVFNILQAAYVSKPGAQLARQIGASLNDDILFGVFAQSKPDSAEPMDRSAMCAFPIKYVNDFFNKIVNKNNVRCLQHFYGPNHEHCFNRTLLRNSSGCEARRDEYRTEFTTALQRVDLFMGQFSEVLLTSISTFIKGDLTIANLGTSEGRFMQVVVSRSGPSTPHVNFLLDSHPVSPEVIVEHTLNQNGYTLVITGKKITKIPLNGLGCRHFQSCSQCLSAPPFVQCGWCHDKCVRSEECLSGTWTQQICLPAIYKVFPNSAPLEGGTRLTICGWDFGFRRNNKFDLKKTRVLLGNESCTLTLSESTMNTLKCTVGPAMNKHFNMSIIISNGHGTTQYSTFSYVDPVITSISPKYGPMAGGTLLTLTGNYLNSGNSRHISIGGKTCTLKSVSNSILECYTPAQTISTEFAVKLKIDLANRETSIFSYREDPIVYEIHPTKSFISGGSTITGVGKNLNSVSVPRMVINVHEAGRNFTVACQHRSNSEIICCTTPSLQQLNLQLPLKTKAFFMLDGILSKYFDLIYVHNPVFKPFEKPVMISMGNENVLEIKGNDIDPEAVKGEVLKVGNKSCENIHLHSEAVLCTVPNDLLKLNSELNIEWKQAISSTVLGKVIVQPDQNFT

B1: FIT016a HER3 (Patritumab)/IGF1R (Figitumumab) (bispecific antibody, human IgG1, kappa)
chain 1: not shown
chain 2: QVQLQQWGAGLLKPSETLSLTCAVYGGSFSGYYWSWIRQPPGKGLEWIGEINHSGSTNYNPSLKSRVTISVETSKNQFSLKLSSVTAADTAVYYCARDKWTWYFDLWGRGTLVTVSSASTKGPSVFPLAPSSKSTSGGTAALGCLVKDYFPEPVTVSWNSGALTSGVHTFPAVLQSSGLYSLSSVVTVPSSSLGTQTYICNVNHKPSNTKVDKKVEPKSC
chain 3: DIQMTQFPSSLSASVGDRVTITCRASQGIRNDLGWYQQKPGKAPKRLIYAASRLHRGVPSRFSGSGSGTEFTLTISSLQPEDFATYYCLQHNSYPCSFGQGTKLEIKRTVAAPSVFIFPPSDEQLKSGTASVVCLLNNFYPREAKVQWKVDNALQSGNSQESVTEQDSKDSTYSLSSTLTLSKADYEKHKVYACEVTHQGLSSPVTKSFNRGEC
notes: leader left out
Consider B1, for which the Kd in test [1] stood at 2.72 nM.

B2: FIT022a HER3 (patritumab)/PD-1 (nivolumab) (bispecific antibody, human IgG1, kappa)
chain 1: not shown
chain 2: B1 chain 2
chain 3: not shown
notes: leader left out; also called FIT022a-Ig
In turn, B2 yielded an equilibrium dissociation constant (Kd) in test [2] of 2.34 nM.

B3: PD-L1 antibody 1B12 (antibody, V domains shown)
VH: QVQLVQSGAEVKKPGSSVKVSCKTSGDTFSSYAISWVRQAPGQGLEWMGGIIPIFGRAHYAQKFQGRVTITADESTSTAYMELSSLRSEDTAVYFCARKFHFVSGSPFGMDVWGQGTTVTVSS
VL: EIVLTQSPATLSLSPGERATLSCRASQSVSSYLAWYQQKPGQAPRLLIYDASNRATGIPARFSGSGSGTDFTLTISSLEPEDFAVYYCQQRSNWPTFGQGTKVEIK
notes: parental mAb
In the case of B3, the Kd in [3] was 9.08 nM; in test [4], 0.402 nM; in test [5], 0.708 nM.

B4: FIT013a cMet (h1332 (13.3.2L-A91T,H-42K,S97T))/EGFR (panitumumab) (bispecific antibody, human IgG1, kappa)
chain 1: not shown
chain 2: QVQLVQSGAEVKKPGASVKVSCKASGYTFTSYGFSWVRQAPGQGLEWMGWISASNGNTYYAQKLQGRVTMTTDTSTSTAYMELRSLRSDDTAVYYCARVYADYADYWGQGTLVTVSSASTKGPSVFPLAPSSKSTSGGTAALGCLVKDYFPEPVTVSWNSGALTSGVHTFPAVLQSSGLYSLSSVVTVPSSSLGTQTYICNVNHKPSNTKVDKKVEPKSC
chain 3: not shown
notes: leader left out; also called FIT013a (c-met/EGFR)
As for B4, the Kd in test [6] turned out to be 0.534 nM; in test [7], 0.577 nM. In addition, the “EGFR Depletion (%) on H441 cell, FACS” value in test [8] came to 65.9%.

B5: FIT023a cMet (h1332)/PD-L1 (1B12) (bispecific antibody, human IgG1, kappa)
chain 1: not shown
chain 2: B4 chain 2
chain 3: not shown
notes: leader left out; also called FIT023a-Ig
In the case of B5, the equilibrium dissociation constant (Kd) is 1.49 nM in test [9] and 0.731 nM in [5].

B6: PD-L1 antibody 10A5 (antibody, V domains shown)
VH: QVQLVQSGAEVKKPGASVKVSCKASGYTFTSYDVHWVRQAPGQRLEWMGWLHADTGITKFSQKFQGRVTITRDTSASTAYMELSSLRSEDTAVYYCARERIQLWFDYWGQGTLVTVSS
VL: DIQMTQSPSSLSASVGDRVTITCRASQGISSWLAWYQQKPEKAPKSLIYAASSLQSGVPSRFSGSGSGTDFTLTISSLQPEDFATYYCQQYNSYPYTFGQGTKLEIK
notes: parental mAb
B6: in [10], the Kd worked out at 0.735 nM.

B7: FIT012d-Ig EGFR (panitumumab)/PD-L1 (10A5) (bispecific antibody)
chain 1: not shown
chain 2: QVQLQESGPGLVKPSETLSLTCTVSGGSVSSGDYYWTWIRQSPGKGLEWIGHIYYSGNTNYNPSLKSRLTISIDTSKTQFSLKLSSVTAADTAIYYCVRDRVTGAFDIWGQGTMVTVSSASTKGPSVFPLAPSSKSTSGGTAALGCLVKDYFPEPVTVSWNSGALTSGVHTFPAVLQSSGLYSLSSVVTVPSSSLGTQTYICNVNHKPSNTKVDKKVEPKSC
chain 3: not shown
notes: leader left out
As to B7, the Kd in [10] came to 0.58 nM.

B8: FIT019b-Ig EGFR (Panitumumab)/HER3 (patritumab) (bispecific antibody, human IgG1, kappa)
chain 1: not shown
chain 2: B7 chain 2
chain 3: not shown
notes: leader left out
In the case of B8, the Kd in [11] stood at 0.338 nM.

B9: FIT017a DLL4 (demcizumab)/VEGF (bevcizumab) (bispecific antibody, human IgG1, kappa)
chain 1: not shown
chain 2: QVQLVQSGAEVKKPGASVKISCKASGYSFTAYYIHWVKQAPGQGLEWIGYISSYNGATNYNQKFKGRVTFTTDTSTSTAYMELRSLRSDDTAVYYCARDYDYDVGMDYWGQGTLVTVSSASTKGPSVFPLAPSSKSTSGGTAALGCLVKDYFPEPVTVSWNSGALTSGVHTFPAVLQSSGLYSLSSVVTVPSSSLGTQTYICNVNHKPSNTKVDKKVEPKSC
chain 3: not shown
notes: leader left out
B9 came in with a Kd in test [12] of 0.0365 nM.

B10: IGF-1R antibody Figitumumab (antibody, V domains shown)
VH: EVQLLESGGGLVQPGGSLRLSCTASGFTFSSYAMNWVRQAPGKGLEWVSAISGSGGTTFYADSVKGRFTISRDNSRTTLYLQMNSLRAEDTAVYYCAKDLGWSDSYYYYYGMDVWGQGTTVTVSS
VL: DIQMTQFPSSLSASVGDRVTITCRASQGIRNDLGWYQQKPGKAPKRLIYAASRLHRGVPSRFSGSGSGTEFTLTISSLQPEDFATYYCLQHNSYPCSFGQGTKLEIK
notes: parental mAb
In turn, B10 came in with a Kd in [1] of 0.729 nM.

B11: anti-CD20 mAb Ofatumumab (antibody, V domains shown)
VH: EVQLVESGGGLVQPGRSLRLSCAASGFTFNDYAMHWVRQAPGKGLEWVSTISWNSGSIGYADSVKGRFTISRDNAKKSLYLQMNSLRAEDTALYYCAKDIQYGNYYYGMDVWGQGTTVTVSS
VL: EIVLTQSPATLSLSPGERATLSCRASQSVSSYLAWYQQKPGQAPRLLIYDASNRATGIPARFSGSGSGTDFTLTISSLEPEDFAVYYCQQRSNWPITFGQGTRLEIK
notes: parental mAb
B11: the binding result in [13] is recorded as “no binding (tested: about 130 nM)”.

B12: EGFR antibody Panitumumab (antibody, V domains shown)
VH: QVQLQESGPGLVKPSETLSLTCTVSGGSVSSGDYYWTWIRQSPGKGLEWIGHIYYSGNTNYNPSLKSRLTISIDTSKTQFSLKLSSVTAADTAIYYCVRDRVTGAFDIWGQGTMVTVSS
VL: DIQMTQSPSSLSASVGDRVTITCQASQDISNYLNWYQQKPGKAPKLLIYDASNLETGVPSRFSGSGSGTDFTFTISSLQPEDIATYFCQHFDHLPLAFGGGTKVEIK
notes: parental mAb
Consider B12, for which the affinity in test [7], expressed as Kd, was 0.362 nM.

B13: OKT3/Ofatumumab FIT7-Ig (bispecific antibody, human IgG1, kappa)
chain 1: not shown
chain 2: not shown
chain 3: not shown
notes: no linker; also called anti-CD3/CD20 FIT-Ig
Take B13: in test [14], the “Binding Intensity by FACS (MFI)” value worked out at 159 MFI.

B14: OKT3/Ofatumumab FIT8-Ig (bispecific antibody, human IgG1, kappa)
chain 1: not shown
chain 2: not shown
chain 3: not shown
notes: GGGGSGS linker
With B14, in test [14], the “Binding Intensity by FACS (MFI)” value worked out at 211 MFI.

B15: Epratuzumab (antibody, V domains shown)
VH: QVQLVQSGAEVKKPGSSVKVSCKASGYTFTSYWLHWVRQAPGQGLEWIGYINPRNDYTEYNQNFKDKATITADESTNTAYMELSSLRSEDTAFYFCARRDITTFYWGQGTTVTVSS
VL: DIQLTQSPSSLSASVGDRVTMSCKSSQSVLYSANHKNYLAWYQQKPGKAPKLLIYWASTRESGVPSRFSGSGSGTDFTFTISSLQPEDIATYYCHQYLSSWTFGGGTKLEIK
notes: also called CD22 antibody Epratuzumab
In test [15], B15 registered an EC50 of 13.2 nM.

What is called Kd is the constant that tells how readily two partners part at equilibrium. One may read the EC50 as the concentration that produces a half-maximal response. Low values mean greater potency, high ones weaker potency.
